This is an account of results in patent US20250320281A1.

The target of assay [1] is HIV-1 APV6 Env (pseudovirus, clade B) (HIV-1). The assay is described as follows: cell-based or functional assay.
Assay [2] addresses HIV-1 Env of isolate LAVI_C3 (HIV-1). Briefly: cell-based or functional assay.
Assay [3] has as its target HIV-1 Env of isolate MGRM-D-012 (clade D pseudovirus) (HIV-1). Briefly: cell-based or functional assay.
Assay [4] addresses HIV-1 Env of isolate MGRM-G-001 (HIV-1). Briefly: cell-based or functional assay.
For assay [5], the target named is HIV-1 Env of isolate MGRM-G-015 (HIV-1). Briefly: cell-based or functional assay.
The target in assay [6] is HIV-1 Env of isolate NL43, clade B, on pseudovirus (HIV-1). The assay is described as follows: cell-based or functional assay.
The target of assay [7] is HIV-1 Env of pseudovirus MGRM-G-027 (HIV-1, clade G isolate MGRM-G-027). Briefly: cell-based or functional assay.
Assay [8] deals with HIV-1 envelope glycoprotein (Env) of isolate 93RW029, clade A (HIV-1). Briefly: cell-based or functional assay.
The target in assay [9] is HIV-1 93UG077 Env (pseudovirus) (HIV-1). The assay is described as follows: cell-based or functional assay.
In assay [10] the target is HIV-1 Env of isolate MGRM-AE-006 (subtype AE) (HIV-1). Briefly: cell-based or functional assay.
In assay [11] the target is HIV-1 MGRM-D-001 Env (pseudovirus) (HIV-1). Briefly: cell-based or functional assay.
Assay [12] has as its target HIV-1 Env of isolate 92UG001 (HIV-1). Briefly: cell-based or functional assay.
Assay [13] has as its target HIV-1 Env of isolate 92UG037 (HIV-1). The assay is described as follows: cell-based or functional assay.
Assay [14] has as its target HIV-1 Env of isolate CAAN.A2 (subtype B) (HIV-1). The assay is described as follows: cell-based or functional assay.
The target in assay [15] is HIV-1 Env of isolate MG RM-D-011 (HIV-1). The assay is described as follows: cell-based or functional assay.
The target of assay [16] is HIV-1 Env of isolate MG RM-D-013 (HIV-1). Briefly: cell-based or functional assay.
Assay [17] has as its target HIV-1 Env of isolate MG RM-D-018 (HIV-1). The assay is described as follows: cell-based or functional assay.
Assay [18] has as its target HIV-1 Env of isolate MG RM-D-022 (HIV-1). Briefly: cell-based or functional assay.
Assay [19] has as its target HIV-1 Env of isolate MGRM-A-009 (subtype A) (HIV-1). Briefly: cell-based or functional assay.
Assay [20] addresses HIV-1 Env of isolate MGRM-AG-005 (subtype AG) (HIV-1). The assay is described as follows: cell-based or functional assay.
The target in assay [21] is HIV-1 Env of isolate MGRM-AG-011 (subtype AG) (HIV-1). Briefly: cell-based or functional assay.
Assay [22] addresses HIV-1 Env of isolate MGRM-Chronic-B-010 (subtype B) (HIV-1). The assay is described as follows: cell-based or functional assay.
Assay [23] deals with HIV-1 Env of isolate PVO.4 (subtype B) (HIV-1). Briefly: cell-based or functional assay.
The target in assay [24] is HIV-1 envelope glycoprotein (Env) of isolate MGRM-C-013 (HIV-1). The assay is described as follows: cell-based or functional assay.
Assay [25] concerns the target HIV-1 envelope glycoprotein (Env) of isolate MGRM-C-025 (HIV-1). The assay is described as follows: cell-based or functional assay.
The target of assay [26] is HIV-1 envelope glycoprotein (Env) of isolate MGRM-C-026 (HIV-1). The assay is described as follows: cell-based or functional assay.
The target of assay [27] is JR-FL gp120 ΔV1/ΔV2 (HIV-1). Briefly: ELISA, antigen-coated wells. (In general: ELISA stands for enzyme-linked immunosorbent assay.)
For assay [28], the target named is HIV-1 93UG077 Env (pseudovirus, clade A) (HIV-1). Briefly: cell-based or functional assay.
Assay [29] addresses HIV-1 Env of isolate MGRM-AG-005 (clade AG), on pseudovirus (HIV-1). The assay is described as follows: cell-based or functional assay.
Assay [30] has as its target HIV-1 Env of isolate MGRM-D-001 (clade D), on pseudovirus (HIV-1). Briefly: cell-based or functional assay.
In assay [31] the target is HIV-1 JRFL Env (pseudovirus, clade B) (HIV-1). The assay is described as follows: cell-based or functional assay.
Assay [32] deals with aMLV envelope (pseudovirus, negative control). The assay is described as follows: cell-based or functional assay.
The target in assay [33] is HIV-1 Env of isolate MGRM-F1-013 (HIV-1). Briefly: cell-based or functional assay.

A value given as a limit tells only on which side of the number the result lay.

Sequence of 4993_K13 (PGT-141) (antibody) (VH): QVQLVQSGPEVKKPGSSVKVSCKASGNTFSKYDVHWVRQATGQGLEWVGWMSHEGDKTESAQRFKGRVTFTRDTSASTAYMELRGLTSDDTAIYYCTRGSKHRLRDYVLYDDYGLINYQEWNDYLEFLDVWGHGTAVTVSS
Sequence of 4993_K13 (PGT-141) (antibody) (VL): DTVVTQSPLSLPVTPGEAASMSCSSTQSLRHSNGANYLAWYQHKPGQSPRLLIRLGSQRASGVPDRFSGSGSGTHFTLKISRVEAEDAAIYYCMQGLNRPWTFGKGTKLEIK
Sequence of 4970_K22 (PGT-144) (antibody) (VH): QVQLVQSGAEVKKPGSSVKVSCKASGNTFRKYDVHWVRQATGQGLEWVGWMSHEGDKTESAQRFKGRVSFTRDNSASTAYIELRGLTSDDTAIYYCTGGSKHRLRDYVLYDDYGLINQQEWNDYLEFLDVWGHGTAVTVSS
Sequence of 4970_K22 (PGT-144) (antibody) (VL): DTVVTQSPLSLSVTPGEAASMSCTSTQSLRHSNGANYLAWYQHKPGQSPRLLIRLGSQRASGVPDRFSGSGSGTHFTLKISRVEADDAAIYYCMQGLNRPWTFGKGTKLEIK
Sequence of 5345_I01 (PGT-137) (antibody) (VH): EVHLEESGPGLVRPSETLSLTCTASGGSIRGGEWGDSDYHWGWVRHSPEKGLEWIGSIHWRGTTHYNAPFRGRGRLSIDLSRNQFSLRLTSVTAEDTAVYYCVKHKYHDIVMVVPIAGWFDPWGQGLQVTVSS
Sequence of 5345_I01 (PGT-137) (antibody) (VL): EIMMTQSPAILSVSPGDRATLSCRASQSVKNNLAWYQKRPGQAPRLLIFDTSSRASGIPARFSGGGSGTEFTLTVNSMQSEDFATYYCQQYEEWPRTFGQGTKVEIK
Sequence of 4980_N08 (PGT-143) (antibody) (VH): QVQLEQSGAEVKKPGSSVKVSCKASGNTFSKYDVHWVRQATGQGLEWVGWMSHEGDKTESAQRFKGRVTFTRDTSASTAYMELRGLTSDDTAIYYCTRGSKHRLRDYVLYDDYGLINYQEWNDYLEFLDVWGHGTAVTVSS
Sequence of 4980_N08 (PGT-143) (antibody) (VL): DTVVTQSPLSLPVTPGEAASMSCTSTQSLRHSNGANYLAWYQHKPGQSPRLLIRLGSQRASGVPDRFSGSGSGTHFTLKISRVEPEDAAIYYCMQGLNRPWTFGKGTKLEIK
Sequence of 4995_E20 (PGT-142) (antibody) (VH): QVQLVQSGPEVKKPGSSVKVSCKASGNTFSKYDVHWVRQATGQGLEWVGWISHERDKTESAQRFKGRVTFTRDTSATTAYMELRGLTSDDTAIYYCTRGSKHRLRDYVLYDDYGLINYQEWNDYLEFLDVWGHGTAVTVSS

For orientation: IC50 means the concentration that gives 50% inhibition. A high value points to lower potency. Substance 1496_C09 (PG9) (TCN-109) (antibody) returned an IC50 neutralization in [1] of 0.214 µg/mL. For the same substance, in [2], the IC50 was 1.45 µg/mL. The IC50 (µg/ml), pseudovirus neutralization came to 9.31 µg/mL in assay [3], 0.32 µg/mL in assay [6], 0.01 µg/mL in assay [7] and 1.19 µg/mL in [8]. Besides, the IC50 (µg/mL), pseudovirus neutralization in assay [4] worked out at 0.166 µg/mL; in assay [5], 6.6 µg/mL.

4970_K22 (PGT-144) (antibody): the IC50 (neutralizing activity, pseudovirus) in [9] and in assay [11] was over 10 µg/mL in each case. In addition, the IC50 (µg/mL), pseudovirus neutralization in assay [10], in assay [4] and in assay [5] was over 50 µg/mL in each case.

As for 4980_N08 (PGT-143) (antibody), the IC50 (neutralizing activity, pseudovirus) in assay [9] and in [11] was over 10 µg/mL each time. Further, the IC50 (µg/mL), pseudovirus neutralization in [10] is over 50 µg/mL; in [4], 0.423 µg/mL; in assay [5] it was over 50 µg/mL.

With 4993_K13 (PGT-141) (antibody), the IC50 (neutralizing activity, pseudovirus) in assay [9] and in assay [11] was over 10 µg/mL each time. The figures for the IC50 (µg/mL), pseudovirus neutralization in assay [10], in assay [4] and in assay [5] were over 50 µg/mL, 0.392 µg/mL and over 50 µg/mL, respectively.

Turning to 4995_E20 (PGT-142) (antibody), the IC50 (neutralizing activity, pseudovirus) in assay [9] and in [11] was over 10 µg/mL each time. For the same substance, the IC50 (µg/mL), pseudovirus neutralization in assay [10] is over 50 µg/mL; in [4], 0.362 µg/mL; in assay [5], over 50 µg/mL.

One may read the EC50 as the concentration giving half of the maximal effect. Consider 5114_A19 (PGT-128) (antibody), for which the IC50 (µg/mL), pseudovirus neutralization is over 50 µg/mL in assay [12]; 0.007 µg/mL in assay [15]; 8.85 µg/mL in [16]; 0.008 µg/mL in assay [17]; over 50 µg/mL in [18]; 0.005 µg/mL in assay [19]. For the same substance, the IC50 (µg/mL), pseudovirus neutralization in assay [10] was 0.044 µg/mL; in assay [20], 0.037 µg/mL; in assay [21], 3.93 µg/mL; in assay [24], over 50 µg/mL; in assay [25] it was 10.5 µg/mL; in [26], 0.007 µg/mL. The substance also gave an IC50 in [13] of 0.006 µg/mL. The IC50 neutralization in assay [14] is 1.48 µg/mL; in [22], 0.004 µg/mL; in assay [23], 0.005 µg/mL. The substance further displayed an EC50 in [27] of 0.3 µg/mL.

For the substance 5136_H01 (PGT-131) (antibody), the IC50 (µg/mL), pseudovirus neutralization in assay [12] was over 50 µg/mL; in assay [15] it was 0.756 µg/mL; in assay [16] it was 4.14 µg/mL; in assay [17], 0.148 µg/mL; in assay [18], over 50 µg/mL; in assay [19], 0.035 µg/mL. Also, the IC50 (µg/mL), pseudovirus neutralization in [10] was 0.026 µg/mL; in assay [20], 1.04 µg/mL; in [21], over 50 µg/mL; in assay [24], over 50 µg/mL; in [25], over 50 µg/mL; in assay [26], 1.67 µg/mL. The substance also showed an IC50 in assay [13] of 0.048 µg/mL. Moreover, the IC50 neutralization in assay [14] is over 50 µg/mL; in assay [22], 0.016 µg/mL; in assay [23] it was over 50 µg/mL.

On to 5147_N06 (PGT-130) (antibody), for which the Neutralization by PGT-130, IC50 in assay [9], in assay [11] and in assay [32] was over 10 µg/mL each time. The Neutralization by PGT-130, IC80 in [9], in assay [11] and in [32] was over 10 µg/mL throughout. Besides, the Neutralization by PGT-130, IC90 in assay [9], in [11] and in assay [32] was over 10 µg/mL in each case. For the same substance, the Neutralization by PGT-130, IC95 in [9], in assay [11] and in assay [32] was over 10 µg/mL in each case. The neutralization IC50 (pseudovirus) in assay [9], in assay [11] and in assay [32] was over 10 µg/mL in each case. The IC50 neutralization in assay [28] is over 10 µg/mL; in assay [1], over 10 µg/mL; in assay [14] it was over 50 µg/mL; in assay [22] it was 0.006 µg/mL; in [23], 5.17 µg/mL; in assay [31] it was 0.0346 µg/mL. Also, the IC50 (µg/mL), pseudovirus neutralization in assay [12] was over 50 µg/mL; in [15], 0.019 µg/mL; in assay [16], 0.429 µg/mL; in assay [17], 0.049 µg/mL; in [18], over 50 µg/mL; in [19], 0.308 µg/mL. The IC50 (µg/mL), pseudovirus neutralization was 0.009 µg/mL in assay [10]; 0.54 µg/mL in assay [20]; over 50 µg/mL in assay [21]; over 50 µg/mL in [24]; over 50 µg/mL in [25]; 0.036 µg/mL in [26]. Moreover, the IC50 in assay [13] was found to be 0.061 µg/mL. Further, the IC50, pseudovirus neutralization in assay [29] was 0.947 µg/mL; in [30], over 10 µg/mL.

As for 5345_I01 (PGT-137) (antibody), the IC50 (µg/mL), pseudovirus neutralization was over 50 µg/mL in assay [12]; 6.3 µg/mL in assay [15]; over 50 µg/mL in assay [16]; 15.1 µg/mL in assay [17]; over 50 µg/mL in [18]; over 50 µg/mL in assay [19]. In addition, the IC50 (µg/mL), pseudovirus neutralization in [10] was over 50 µg/mL; in [20], over 50 µg/mL; in assay [21] it was over 50 µg/mL; in assay [24] it was over 50 µg/mL; in [25] it was over 50 µg/mL; in assay [26], 0.011 µg/mL. The substance further showed an IC50 in assay [13] of over 50 µg/mL. The IC50 neutralization in assay [14], in assay [22] and in assay [23] was over 50 µg/mL throughout. The same substance registered a half-maximal effective concentration (EC50) in assay [27] of 0.2 µg/mL.

The substance PGV04 (antibody) returned an IC50 in assay [12] of 0.553 µg/mL. Moreover, the IC50 (µg/mL), pseudovirus neutralization in [4] was over 50 µg/mL; in assay [5], 0.333 µg/mL.

As to VRC01 (antibody), the IC50 in [15] is 0.075 µg/mL; in assay [16], 0.087 µg/mL; in assay [17], over 50 µg/mL; in [18], over 50 µg/mL; in [33] it was 0.17 µg/mL. Also, the results for the IC50 (µg/mL), pseudovirus neutralization in [10], in assay [4] and in [5] were 4.65 µg/mL, 0.0371 µg/mL and 0.548 µg/mL, respectively.
